Results published in publication PMC10754444.

Molecular target: ubiquitin (UniProt P0CG48)

Substance | Kcat/Km of Ub-AMC hydrolysis in vitro (substrate Ub-AMC, R&D Systems; 1.0 μM enzyme; 25°C) [M⁻¹ s⁻¹] | also measured
wt PRRSV DV PLP2_(385-578) (domain or fragment) |  | Kcat/Km of Ub-AMC hydrolysis in vitro (substrate Ub-AMC, R&D Systems; 25°C): 5000 M⁻¹ s⁻¹
PRRSV DV PLP2_(385-578) V520A (domain or fragment) | 190 | 
PRRSV DV PLP2_(385-578) V518S (domain or fragment) |  | Kcat/Km of Ub-AMC hydrolysis in vitro (substrate Ub-AMC, R&D Systems; 0.5 μM enzyme; 25°C): 1100 M⁻¹ s⁻¹
PRRSV DV PLP2_(385-578) V518S/V520A (domain or fragment) | 133 | 
